A short description of this data set: self-splicing fitness, log relative to wild type (ln ratio); higher = more splicing; Tetrahymena group I intron in knt gene, E. coli kanamycin selection, DiMSum; sequences stand for … in CUCUCU…GGAGGGAAAAGUUAUCAGGCAUGCACCUGGUAGCUAGUCUUUAAACCAAUAGAUUGCAUCGGUUUAAAAGGCAAGACCGUCAAAUUGCGGGAAAGGGGUCAACAGCCGUUCAGUACCAAGUCUCAGGGGAAACUUUGAGAUGGCCUUGCAAAGGGUAUGGUAAUAAGCUGACGGACAUGGUCCUAACCACGCAGCCAAGUCCUAAGUCAACAGAUCUUCUGUUGAUAUGGAUGCAGUUCACAGACUAAAUGUCGGUCGGGGAAGAUGUAUUCUUCUCAUAAGAUAUAGUCGGACCUCUCCUUAAUGGGAGCUAGCGGAUGAAGUGAUGCAACACUGGAGCCGCUGGGAACUAAUUUGUAUGCGAAAGUAUAUUGAUUAGUUUUGGAGUACUCGUGGUCG
In a few lines:
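Colonies from six replicate transformations of E. coli BL21(DE3) were pooled and amplicon-sequenced on an Illumina HiSeq 2500. The library placed an intron with all eight P1ex-region nucleotides randomised inside the knt kanamycin-resistance gene on pET-22b(+), and cells grew overnight at 37°C or 30°C on LB agar with or without 25 μg/mL kanamycin (plus 100 μg/mL carbenicillin, 50 μM IPTG, 0.2% rhamnose). Fitness is the DiMSum error-weighted combination of wild-type-normalised replicate fold changes, kanamycin versus none.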

Here are results for 35 sequences from the supplement of paper PMC7877785.

± gives the uncertainty stated by the source.

CAGCAGCAAUAUUACGCAAC: the “self-splicing fitness (ln)” value is, setting by setting: (30 °C) -3.45 ± 0.28; (37 °C) -1.37 ± 0.25. On the same counts, the results for CAGCAGCAAUAUUACGCACG are -0.667 ± 0.09 and -0.264 ± 0.1. With CAGCAGCAAUAUUACGCAUU, the “self-splicing fitness (ln)” value was -3.68 ± 0.15 (30 °C) and -0.546 ± 0.089 (37 °C). For the sequence CAGCAGCAAUAUUACGCGCC, the “self-splicing fitness (ln)” value is -1.71 ± 0.25 (30 °C) and -0.362 ± 0.22 (37 °C). As for CAGCAGCAAUAUUACGCGUC, the “self-splicing fitness (ln)” value is -3.68 ± 0.17 (30 °C) and -1.24 ± 0.13 (37 °C). In the case of CAGCAGCAAUAUUACGCUAA, the “self-splicing fitness (ln)” value by setting is: (30 °C) -2.47 ± 0.2; (37 °C) -1.72 ± 0.13.

For the sequence CAGCAGCAAUAUUACGCUAC, the “self-splicing fitness (ln)” value runs as follows: (30 °C) -3.65 ± 0.38; (37 °C) -2.81 ± 0.38.

Turning to CAGCAGCAAUAUUACGGAUG, the “self-splicing fitness (ln)” value (30 °C) was -2.06 ± 0.097 and the “self-splicing fitness (ln)” value (37 °C) was -1.48 ± 0.098. CAGCAGCAAUAUUACGGGCG: the “self-splicing fitness (ln)” value was determined as 0.0476 ± 0.064 (30 °C) and 0.363 ± 0.083 (37 °C).

As for CAGCAGCAAUAUUACGGUCA, the “self-splicing fitness (ln)” value is, setting by setting: (30 °C) -2.45 ± 0.17; (37 °C) -1.22 ± 0.11. As for CAGCAGCAAUAUUACGGUCU, the “self-splicing fitness (ln)” value reads like this: (30 °C) -2.87 ± 0.13; (37 °C) -0.712 ± 0.1. Regarding CAGCAGCAAUAUUACGGUUA, the “self-splicing fitness (ln)” value runs as follows: (30 °C) -0.417 ± 0.06; (37 °C) -0.163 ± 0.059. As for CAGCAGCAAUAUUACGUAGA, the “self-splicing fitness (ln)” value is, setting by setting: (30 °C) -2.13 ± 0.071; (37 °C) -1.57 ± 0.097. For CAGCAGCAAUAUUACGUCAU, the “self-splicing fitness (ln)” value by setting is: (30 °C) -4.22 ± 0.33; (37 °C) -2.77 ± 0.23.

On to CAGCAGCAAUAUUACGUCCA, for which the “self-splicing fitness (ln)” value was -2.61 ± 0.3 (30 °C) and -0.781 ± 0.22 (37 °C). CAGCAGCAAUAUUACGUCGA: the “self-splicing fitness (ln)” value runs as follows: (30 °C) -1.73 ± 0.12; (37 °C) -1.25 ± 0.11.

As to CAGCAGCAAUAUUACGUGCG, the “self-splicing fitness (ln)” value (30 °C) was -1 ± 0.05 and the “self-splicing fitness (ln)” value (37 °C) was -0.378 ± 0.066.

Consider CAGCAGCAAUAUUACGUUCA, for which the “self-splicing fitness (ln)” value (30 °C) was -2.17 ± 0.2 and the “self-splicing fitness (ln)” value (37 °C) was -0.173 ± 0.17.

Regarding CAGCAGCAAUAUUACGUUCC, the “self-splicing fitness (ln)” value (37 °C) is -2.13 ± 0.25. On to CAGGAGCAAUAUUACGAGGU, for which the “self-splicing fitness (ln)” value runs as follows: (30 °C) -2.48 ± 0.2; (37 °C) -2.84 ± 0.25. On the same counts, the results for CAGGAGCAAUAUUACGCCCA are -2.13 ± 0.38 and -1.18 ± 0.27. As to CAGGAGCAAUAUUACGCCGA, under “30 °C”, the “self-splicing fitness (ln)” value is -1.75 ± 0.4. For CAGGAGCAAUAUUACGCCUU, the “self-splicing fitness (ln)” value is -1.86 ± 0.24 (30 °C) and -1.99 ± 0.33 (37 °C).

CAGGAGCAAUAUUACGCGAG: the “self-splicing fitness (ln)” value (30 °C) is -2.59 ± 0.23 and the “self-splicing fitness (ln)” value (37 °C) was -1.59 ± 0.16. The like results for CAGGAGCAAUAUUACGCGGC were, in that order, -1.43 ± 0.36 and -1.14 ± 0.41. Take CAGGAGCAAUAUUACGCUUU: the “self-splicing fitness (ln)” value reads like this: (30 °C) -3.59 ± 0.22; (37 °C) -1.81 ± 0.17. On the same counts, the results for CAGGAGCAAUAUUACGGCGA are -2.73 ± 0.29 and -3.49 ± 0.29. For CAGGAGCAAUAUUACGGGGU, the “self-splicing fitness (ln)” value reads like this: (30 °C) -3.38 ± 0.23; (37 °C) -2.19 ± 0.24.

On to CAGGAGCAAUAUUACGGUUA, for which the “self-splicing fitness (ln)” value by setting is: (30 °C) -3.1 ± 0.37; (37 °C) -3.41 ± 0.4. In the case of CAGGAGCAAUAUUACGUAGC, for the setting “37 °C”, the “self-splicing fitness (ln)” value was -2.7 ± 0.36. On to CAGGAGCAAUAUUACGUCUA, for which the “self-splicing fitness (ln)” value (30 °C) is -1.43 ± 0.13 and the “self-splicing fitness (ln)” value (37 °C) was -1.68 ± 0.14. Turning to CAGGAGCAAUAUUACGUGAC, the “self-splicing fitness (ln)” value (30 °C) is -2.45 ± 0.19. As for CAGGAGCAAUAUUACGUUUG, the “self-splicing fitness (ln)” value was -3.14 ± 0.14 (30 °C) and -1.43 ± 0.14 (37 °C).

For the sequence CAGUAGCAAUAUUACGAAUC, where the note is “30 °C”, the “self-splicing fitness (ln)” value was -3.49 ± 0.33. Regarding CAGUAGCAAUAUUACGAGCC, the “self-splicing fitness (ln)” value runs as follows: (30 °C) -3.88 ± 0.37; (37 °C) -3.14 ± 0.47.
